Measurements reported in patent publication US7919577B2, “Adrenocorticotropic hormone analogs and related methods” (Colorado Seminary, priority 2004, dated 2011).

Legend:
[1] = molecular target: T1, adrenal ACTH receptors such as MC-2R (explanted adrenal membrane) (Mus musculus, UniProt Q64326+Q9D159); test: in vitro Serum-free Adrenal Competitive Binding Assay (Example 3); conditions: cold peptide at 10 nM, 100 nM, 1000 nM; CPM; FIG. 3
T1 construct: the adrenal halves were macerated or otherwise dissociated using Dounce Homogenizer to form a membrane fraction; from tissue; host or cells: mouse adrenal glands (explanted, homogenised to a membrane fraction)
T1 sequence (Q64326 whole entry): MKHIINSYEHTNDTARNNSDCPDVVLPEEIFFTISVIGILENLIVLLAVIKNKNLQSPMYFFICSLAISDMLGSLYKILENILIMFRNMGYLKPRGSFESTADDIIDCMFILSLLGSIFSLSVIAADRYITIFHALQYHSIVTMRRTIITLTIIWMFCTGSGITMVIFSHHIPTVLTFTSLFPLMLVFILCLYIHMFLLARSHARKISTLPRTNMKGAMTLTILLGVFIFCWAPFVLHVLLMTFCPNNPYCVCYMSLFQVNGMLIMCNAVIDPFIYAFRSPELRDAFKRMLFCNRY
T1 sequence (Q9D159 whole entry): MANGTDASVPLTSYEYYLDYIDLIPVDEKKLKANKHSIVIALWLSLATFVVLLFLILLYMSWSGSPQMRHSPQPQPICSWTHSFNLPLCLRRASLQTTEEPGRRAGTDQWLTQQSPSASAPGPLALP
Source text: ACTH analog compounds that bind to adrenal membrane with a greater affinity than endogenous unmodified ACTH, and are able to displace unmodified ACTH can be identified using an in vitro Serum-free Adrenal Competitive Binding Assay (Example 3). […] A higher CPM level indicates the presence of greater amounts of the radiolabelled compound. […] Column 220 indicates the level of radio-labeled unmodified mACTH(1-24) detected after combining the explanted adrenal membrane with only the radio-labeled mACTH(1-24) for 2 hours (no competitive binding). Columns 230, 240, and 250 show the results of competitive binding assays for binding of non-radio-labeled (“cold”) mACTH(1-24) to displace the radio-labeled mACTH(1-24) from the explanted adrenal membrane (measured in column 220) by competitive binding to receptors such as MC-2R on the adrenal membrane. […]
ACTH analogs with the ability to bind adrenal receptors with a greater affinity than compounds with known adrenal binding activity (preferably ACTH) can also be identified by performing an in vitro Adrenal Competitive Binding Assay, whereby measurement of the reduction in the amount of the radiolabelled adrenal-binding compound (e.g., ACTH) is measured at various concentrations of non-radio-labeled ACTH analog test compound in a medium containing explanted adrenal membrane. […]

[2] = cited from earlier work
[3] = test system: dexamethasone-suppressed male FVB/N mice; test: in vivo Serum Corticosteroid Inhibition Assay (Example 2); set-up: species or system mouse; conditions: mACTH(1-24) alone 120 minutes after dexamethasone, blood one hour later
Protocol: The in vivo Serum Corticosteroid Inhibition Assay can include sequential administration of the test compound and the corticosteroid-producing compound by the following steps: first, an agent to suppress endogenous ACTH production was administered to a mouse subject, such as an intraperitoneal injection of dexamethasone; second, after waiting a suitable period of time for suppression of endogenous ACTH production (e.g., 1.5-2.0 hours), a test compound was administered to the mouse by a suitable method, such as intraperitoneal injection; third, after waiting a suitable period of time (e.g., 1 hour) for action of the test compound, a compound with corticosteroid-producing activity can be administered to the mouse by a suitable method, such as intraperitoneal injection; and fourth, after waiting a suitable period of time for the biological activity of both administered compounds to occur (e.g., 1 hour), a blood sample was taken from the subject and the level of serum corticosterone was determined by a suitable method, such as a competitive radioimmunoassay using ^125I RIA kit (ICN, Costa Mesa, Calif.). Optionally, steps two and three can be reversed (administering the corticosteroid-producing compound first, followed by administration of the test compound). The in vivo Serum Corticosteroid Inhibition Assay can also include co-administration of the test compound and the corticosteroid-producing compound by the following steps: first, an agent to suppress endogenous ACTH production was administered to a mouse subject, such as an intraperitoneal injection of dexamethasone; second, after waiting a suitable period of time for suppression of endogenous ACTH production (e.g., 1.5-2.0 hours), the corticosteroid-producing compound and a test compound were co-administered to the mouse by a suitable method, such as intraperitoneal injection; and third, after waiting a suitable period of time for the biological activity of both administered compounds to occur (e.g., 1 hour), a blood sample was taken from the subject and the level of serum corticosterone was determined by a suitable method, such as a competitive radioimmunoassay using ^125I RIA kit (ICN, Costa Mesa, Calif.). Also, in some embodiments, the first step in any in vivo Serum Corticosteroid Inhibition Assay can be replaced by a measurement of the initial endogenous corticosteroid or corticosteroid level in the blood of the subject in the manner of step four, instead of administering the agent to suppress ACTH production. Example 2 describes murine in vivo Serum Corticosteroid Inhibition Assays in detail.
A series of separate in vivo Serum Corticosteroid Inhibition Assays were performed to identify ACTH analogs that inhibit ACTH adrenal hormone production in vivo. The serum corticosterone levels of dexamethasone-suppressed mice were measured as described in Example 2 after administration of (1) ACTH (corticosteroid-producing compound), (2) an ACTH analog (test compound) followed by subsequent administration of ACTH, (3) a combination of ACTH and the ACTH analog and (4) the ACTH analog alone.
The in vivo Serum Corticosteroid Inhibition Assay was performed according the following method. The ACTH analog test compounds, such as those showing low activities in Example 1, were tested for their abilities to inhibit adrenal hormone production induced by unmodified ACTH.
First, two to three month-old male FVB/N mice from our colony, five per group, were injected intraperitoneally with dexamethasone (0.4 mg/0.1 ml PBS per mouse; Sigma, St. Louis, Mo.) to suppress their endogenous ACTH production.
Second, ninety to one hundred twenty minutes later, animals were injected subcutaneously between the shoulder blades with wild type ACTH and/or test ACTH analog peptides (1 μg/0.1 mL PBS/0.5% BSA) or with vehicle alone (0.1 mL PBS/0.5% BSA). […]

For “N-Ser^1-Tyr-Ser-Met-Glu^5-His-Phe-Arg-Trp-Gly^10-Lys-Pro-Val-Gly-Lys^15-Lys-Arg-Arg-Pro-Val^20-Lys-Val-Tyr-Pro-Ac [mACTH(1-24), reference compound]”, the “displacement of radio-labeled mACTH(1-24) from explanted adrenal membrane” value [1] is listed as “displacement of the radio-labeled mACTH(1-24)”, the “half life in blood” value [2] is listed as “less than 20 minutes” and the “serum corticosterone at 180 minutes” value [3] is listed as 500 ± 76 ng/mL. The “serum corticosterone at 180 minutes” value ([3]; listed as ACTH) was 500 ± 76 ng/mL.
